Columns and labels:
[1] = target: fibrin clots (formed from fibrinogen with bovine thrombin); assay: fibrin clot binding; ratio against full length t-PA
[2] = target: fibrin clots (formed from fibrinogen with bovine thrombin); assay: fibrin clot binding at 0.3 mg/mL fibrinogen; bound = total minus free enzyme in the supernatant
[3] = target: fibrin clots (formed from fibrinogen with bovine thrombin); assay: fibrin clot binding at 0.2 mg/mL fibrinogen; bound = total minus free enzyme in the supernatant
[4] = target: chimeric truncated and mutant variant of t-PA (truncated-mutant t-PA, KHRR 128-131 substituted with AAAA) (human) (UniProt P00750); assay: cell-based or functional assay
[5] = target: full length t-PA (tissue-type plasminogen activator), commercially available t-PA, Actylase (human) (UniProt P00750); assay: cell-based or functional assay

fibrin affinity relative to full length t-PA (set to 100%) [1]	fibrin affinity (percent of enzyme bound to fibrin clot) [2]	fibrin affinity (percent of enzyme bound to fibrin clot) [3]	residual activity after inhibition by rPAI-1 [4]	residual activity after inhibition by rPAI-1 [5]	Substance
86%	46%	38%			chimeric truncated t-PA (GHRP-SYQ-K2S) (from UniProt P00750 211-562) (enzyme)
			85%	65%	human rPAI-1 (recombinant plasminogen activator inhibitor-1) (from UniProt P05121 24-402)
	53%	44%			full length t-PA (tissue-type plasminogen activator), commercially available t-PA, Actylase (from UniProt P00750 36-562) (enzyme)
